Experimental data as given in the nanobody polyreactivity screen of Harvey et al. (2022).

Assay: yeast display, Sf9 membrane polyspecificity reagent, FACS + sequencing; frameworks hold sequencing errors
Method in brief: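 Nanobodies came from a synthetic yeast display library in Saccharomyces cerevisiae BJ5465, induced with galactose for 36–48 hours and stained for 1 hour at 4 °C with 10% biotinylated, detergent-solubilized Sf9 membrane reagent. Cells were enriched on streptavidin microbeads and then FACS-sorted, with low and high (top ~1%) gates set on anti-HA fluorescence for expression and streptavidin fluorescence for reagent binding. Each polyreactivity label reflects the gate a clone came from. Genes were amplified by colony PCR, sequenced by MiSeq 2 × 250 and filtered by CDR length.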

Sequence	polyreactivity (PSR sort gate)
QVQLVESVGGLVQAGGSLRLSCAASGSTFQGNAMGWYIQAPGKERELVAAISRSGGSTYADSVKGRFTISRDNAKNTVYLQMNSLKPEDTAVYYCAAYSGVGYLWFDYWGLGTQVTVSS	low polyreactivity
QVQLVESGGGLVQAGGSLRLSCAASGRIFTYYTMGWYRQAPGKERELVAAISWSGGRTYYADSVKGRFTISRDNAKNTVYLQMNSLKPEDTAVFYCARLQDSRESPWRGYYWGQGTQVTVSS	high polyreactivity
QVQLVESGGGLVQAGGSHRLSCAASGRSFKYYAMGWYRQAPGKERELVARISPSSGNTYYADSVKGRFTISRDNAKNTVYLQMNSLKPEDTGVYVCATVPHYNGFNYWGQGTQVTVSS	high polyreactivity
QVQLVESGGGLVQAGGTLRLSCSASGRTFFSYAMGWYRQAQGKERELVAAITYSGGRTYYADSVKGRFTISRDNAKNTVYVQMNSLKRDDTAVYYCAGTHYREKMDYWGQGTQLTVSS	low polyreactivity
QVQLQESGGGLVQAGGSLRLSCAASGSIFYVYGMGWYRQAPGKERELVAVINAGTNTNYADSVRGRFTISRDNAINSVLLQMNSLKPEDTAVYYCADDGNGYQAHEYWGQGNQVTVSS	high polyreactivity
QVQLVESGAGLVQAGGSLRLSCAASGRILHEYAMGWYRQAPGKERELVAAITFSGTSTYYADSVKGRFTISRDNAKNSVYLQMNSLKPEDTAVYYCAADTYGGSRDYWGQGTQVTVSS	low polyreactivity
QVQLVESGGGLVQAGGSLRLSCAASGSIFSGNAMGWYRQAPGKERELVAFISWNAVGTYYSDSVKGRFTISRDNAKNTVYLQLNSLKPEDTAVYYCSAVRYTGFYYWGQGTQVTVSS	high polyreactivity
QVQLVESGGGLVQAGGSLRLSCAASGFIFGHNDMGWYRQAPGKERELVASISKSGGDTYYADSVKGRFTISRDNAKNTVYLQMNSLKPEDTAVYYCAADGPDAYYYHRYIYFRRSYYWGHGTQVTVSS	low polyreactivity
PVQLVESGGGLVQAGGSLRLSCAASGRTFRSNCMGWYRQAPAKERDLVATISEGGGSTYYADSVKGRFTISRDHAKNNVYLQMNSLKTEYTAVYYCAADKWYVLHYLDMNYWGQGTQVTVSA	high polyreactivity
QVQLVESGGGLVQAGGSLRLSCAASGRTFNFYSMGCYRQAPRKERELVAAISHGDSTYYADSVKGRFTISRDNAKNTVYLQMNSLNPEDTAVYYCAASQKYYLRKYEYWGQGTQVTVSS	low polyreactivity
QVQLVESGGGLVQAGGSLRLSCASSGNTFKYDAMGWYRQAPGKERELVAAITWNGARTYYADSVKGRFTISRDNANYTGYLQMNRLKAEVTAVYYCNARQGYRFDYWGQGTQVSVSS	high polyreactivity
QVQLVESGGGLVQAGGSLRLSCAASGSIFYYYAMGWYRQAPGKERELVASISRSGGSTFYADSVKGRFTISRDNAKNTVYLQMNSLKPEDTAVYYCATGWYYSPYNYWGQGTQVTVSS	high polyreactivity
QVQLVESGGGLVQAGGSLRLSCAASGSTFQEYAMGWYRQAPGKERELVASIRWSGGRTYYADSVKGRFTISRDNAKNTVYLQMNSLKPEDTAVYYCNKVWVYAVTPSSWYKYGSWGQGTQVTVSS	low polyreactivity
QVQLVESGGGLVQAGGSLRLSCAASGSIFNANTMGWYRQAPGKERELVAVITSGGSTYYADSVKGRFTISRDNAKNTVYLQMNSLKPEDTAVYYCAKDPGPYDYDYWGQGTQVTVSS	low polyreactivity
QVQLVESGGGLVQAGGSLRLSCAASGFIINKYTMGWYRQAPGKERELVAAITWSGGTTYYADSVKGRFTISRDNAKNTVYLQMNSLKPEDTALYYCAAYYYRGRVCAYDYWGQGTQVTVSS	high polyreactivity
QVQLVESGGGLVQAGGSLRLSCAASGFTFYNYAMGWYRQAPGKERELVAAITSSGTSTYYADSVKGRFTISRDNAKNTVYLQMNSLKPEDTAVYYCNAVSSYSYSYDYWGQGTQVTVSS	low polyreactivity
QVQLVESGGGLVQAGGSLRLSCAASGRIFWDYAMGWYRQAPGKERELVAVITFSGDSTYYADSVKGRFTISRDYAKNTVYLQMNSLKPEDTAVYYCAAARAIRQFWYVATFEYWGQGTQVTVSS	low polyreactivity
